{"source": "paper PMC3562662", "substrate": "O=C(O)/C=C/c1ccc(O)c(O)c1", "assay": "radiometric methyltransferase assay, scintillation counting, nonlinear Michaelis-Menten fit", "type": "biochemical, Brachypodium distachyon", "conditions": "co-substrate S-[methyl-14C]-adenosyl-L-methionine plus unlabeled SAM, 0.1 M Tris-HCl pH 7.5, 30°C, 20 min, methods heading b55 names BdCOMT1", "data": [{"protein": "BdCOMT4 (Brachypodium distachyon) (protein, full-length cDNA (from Bd21-3 plants) in pQE-T7-1, NdeI/XhoI, His-tagged; primer adds Met-Lys-Gln before native Met; expressed in E. coli, Ni-NTA purified) MGSTAADMAATADEEACMFALQLASSSILPMTLKNAIELGLLDTLVQASGKSLTPAEVAAKLPSSSNPAAPDMVDRMLRLLASYGVVSCAVEEGENGKLSRRYAAAPVCKWLTPNEDGVSMAALALMNQDKVLMESWYYLKDAVLDGGIPFNKAYGMSAFEYHGTDPRFNRVFNEGMKNHSIIITKKLLDLYPGFEGLGTLVDVGGGVGATVGAIVARHPAIKGINFDLPHVISEGIPFPGVTHVGGDMFQKVPSGDAILMKWILHDWSDAHCATLLKNCYDALPAHGKVVIVECILPVNPEATPKAQGVFHVDMIMLAHNPGGKERYEREFEELARGAGFTGVKATYIYANAWAIEFTK", "values": [{"measurement": "Km", "value": 187, "unit": "µM"}]}]}
